Measured values taken from the DeepSol protein solubility set.

Assay: soluble on expression in E. coli; label from the status in PepcDB or PDB records

| Sequence | soluble on expression in E. coli |
| --- | --- |
| MSEDGEISLSPNSAALMDGLDDFIIDKNCSGIIPNEDLERETPSADDDAEVKTSSNWAKNMRKRMFGEQCDEPEESEKKRRRTNCCFNCRGGDHSIAQCPEPKNFAEIRKNKLEFMNDKQQQHQPTGRISQVTEQQQEAKFKPGRLSQNLRKALSLGPDDIPEWVYRMRRLGFYRGYPPGYLRKSLKREFATLKIYSEDHNQEEVDNDDDEEARPAPTIQSEKVHFYMGFNKTYGALRDRERGRFEVPPFDIFCEMLQTEVARDHEGTEKIRIREERHQRSELRKIREQQKEEEEQQQRDSAEKVEKEVTVDQTISEVAAAAAAVEEKPGTPEPVGRMGESISEFIGTPIFSRRDVTGTWIEDTVPSLEAFSVGIVPFEAKEEEKPRGIFKKIMSTLKGITGRNSGDDEMKKKE | not soluble |
| MAHHHHHHMSVSVTEHRHGDMHHGTMRRRCLTRVLLAGPQGDLEALVSRMPRTWSLQQPLEMLQPEAVEEERANTASAAAATRTENAGLAGGKVPDKSAASVMISYSPVRATLPLAAAASEEERAEEDVVDVVAAVEEKAAMKADLHNSSGSAVEPPSLEGTPNVRLHAAQAPHEEQQEEGDCGVVVAHEAPALTEDGIPGADSAVVRAAEVAATLDIGSQLAEAAPCADRASLDSSAALPVSQVPE | not soluble |
| MSLDDRSIRAEERSDKLMNLKIKNITCSIKKVPLKRPFITALHKVTEIEGLKIVVELSDGQTGTGTATPNEKVTGDTLQSSLDIVNQVIKPALINQDFKNWNKLLTTLQTCIVHNTAAKAAMDIALYQLKAKENNESLVNLLGSEKGKLTTDYTISIGSDDHMVSEAKSLVKDGFTAIKIKLGNNSVSHDIKTIQKISKAVGPDISLRIDCNQAWNYKDTLKASRIWAQDNLNIDFIEQPVLKDAISDLTLLSENSPYPIMADESVASYQDAINLIKHHACDYINIKLMKTGGLSEAIKINDLAQACGIKTMVGCMIEPVESIAAAAAFAVANKNVKFIDLDSIFMATQDPDLGKYLKIKNNEIILKDEGHHHHHH | soluble |
| MSTTIRFLRIVTSRAMSSSWSCNKCTFLNSASQKLNCMICLAPVSLPSLSPPPPSLSISANDEAKWACKACTFLNTYKNSICDVCGTRSPTSSLLGFQDLTDSGLESNDADSSVGSVFFPLRRCIKRKAMDDDVVEVDGASVVCSESQGVMKKNKEIETKGVASDSGTPLTCLKILSYNVWFREDLELNLRMRAIGHLIQLHSPHLICFQEVTPEIYDIFRKSNWWKAYSCSVSVDVAVSRGYYCMLLSKLGVKSFSSKSFGNSIMGRELSIAEVEVPGRKPLVFATSHLESPCPGPPKWDQMFSRERVEQAKEAIEILRPNANVIFGGDMNWCDKLDGKFPLPDKWVDVWEVLKPGDLGFTYDTKANPMLSGNRALQKRLDRILCRLDDYKLGGIEMVGKEAIPGLSYVKEKKVRGDIKKLELPVLPSDHFGLLVTLSPK | soluble |
| MLSIREYLEAGETTISNLLFDHYQKIGLKDDEFLFLLQLFRSQNAGDLFPDLMAIAETMGKTPDTIYKLLNQLVSRGFIRIETQQNQKGQMMDTYDLLPVFQKIQLFLQTSKEKQVVANHEDEIKQLYQGFEKEFGRPLSPIELEMIGQWLNTDHYSPELIRLALREAVLNQAYSLKYIDRILLAWERKNITTKEQVAADQKKRKDSMIQNEIEQQGQTQESLPKVTLHNWLNPEDSE | soluble |
| MAAEDELQLPRLPELFETGRQLLDEVEVATEPAGSRIVQEKVFKGLDLLEKAAEMLSQLDLFSRNEDLEEIASTDLKYLLVPAFQGALTMKQVNPSKRLDHLQRAREHFINYLTQCHCYHVAEFELPKTMNNSAENHTANSSMAYPSLVAMASQRQAKIQRYKQKKELEHRLSAMKSAVESGQADDERVREYYLLHLQRWIDISLEEIESIDQEIKILRERDSSREASTSNSSRQERPPVKPFILTRNMAQAKVFGAGYPSLPTMTVSDWYEQHRKYGALPDQGIAKAAPEEFRKAAQQQEEQEEKEEEDDEQTLHRAREWDDWKDTHPRGYGNRQNMGLEHHHHHH | soluble |
| MPELPEVETIRRTLLPLIVGKTIEDVRIFWPNIIRHPRDSEAFAARMIGQTVRGLERRGKFLKFLLDRDALISHLRMEGRYAVASALEPLEPHTHVVFCFTDGSELRYRDVRKFGTMHVYAKEEADRRPPLAELGPEPLSPAFSPAVLAERAVKTKRSVKALLLDCTVVAGFGNIYVDESLFRAGILPGRPAASLSSKEIERLHEEMVATIGEAVMKGGSTVRTYVNTQGEAGTFQHHLYVYGRQGNPCKRCGTPIEKTVVAGRGTHYCPRCQR | soluble |
| MSLIDAEHIEIALDKRYLRESYLPERALDDILDGQVIIETQGEQVGQVNGLTVIEVTGHPMPYGEPARISCVIHFGDGDIADVERKVELGGNLHAKGMMIMQAFVSSALNLDGSLPFSASIVFEQSYSEVDGDSASLAELCSLVSALSEYPIDQQIAVTGAVDQFGRVQAVGGLNEKIEGFYRVCCHQGLTGEQGVILPSSNLKHLALHKSVVESIKNGEFNIWPVSTVDEAIPLLMGKPFRGEDEDSVIAKIAERIDNFEKLVEGHHHHHH | soluble |
| MITVKNIEGSETYVLRQKILRPNQTLADCKYPSDYETDTFHLGAFINDQLISIASFSKEMHPDLQAGMHYRLRGMATLPEFRNNHAGSSLIQKAEQILQERQANMLWCNGRITVADYYKRLGFQEHGEIFEIEPIGLHKVLYKRI | not soluble |
| MAKVLCVLYDDPVDGYPKTYARDDLPKIDHYPGGQTLPTPKAIDFTPGQLLGSVSGELGLRKYLESNGHTLVVTSDKDGPDSVFERELVDADVVISQPFWPAYLTPERIAKAKNLKLALTAGIGSDHVDLQSAIDRNVTVAEVTYCNSISVAEHVVMMILSLVRNYLPSHEWARKGGWNIADCVSHAYDLEAMHVGTVAAGRIGLAVLRRLAPFDVHLHYTDRHRLPESVEKELNLTWHATREDMYPVCDVVTLNCPLHPETEHMINDETLKLFKRGAYIVNTARGKLCDRDAVARALESGRLAGYAGDVWFPQPAPKDHPWRTMPYNGMTPHISGTTLTAQARYAAGTREILECFFEGRPIRDEYLIVQGGALAGTGAHSYSKGNATGGSEEAAKFKKAV | soluble |
| MAEGERLYLCGEFTKAIQSFTNALHLQSGDKNCLVARSKCYLKMGDLEKSLNDAEASLRNDPTFCKGILQKAETLYTMGDFEFALVFYHRGYKLRPDREFKVGIQKAQEAINNSVGSPSSIKLENKGDLSFLSKQAESKKAQQKHLPIKQLSYSTKHEIKRKGSLKSEKTVRQLLGELYVDKEYLEKLLLDEDLIKGTIKSGLTVEDLIMTGINYLDTRSNFWRQQKPIYARERDRKLMQEKWLRDRKRSPSQTAHYILKSLEDIDMLLTSGSADGSLQKAEKVLKKVLEWNQEEVPNKDELVGNLYSCIGNAQIELGQMVAALQSHRKDLEIAKEHDLPDAKSRALDNIGRVFARVGKFQQAIDVGGEDPSSQNHPGEDLALPRDWPLLLGAGPGVAGPELWGKVSAVR | soluble |
| MGSDKIHHHHHHMVYVNANVDTKVDNRKDNCDNTNTYSHTVDRKDNFDNTTTNTKTVNRNDNCNNQEEGDVNMYRRNDNCNNREATNSRSANYSIHNQGMINCYNGIAIDNRAFNSSGANTMAGTEFLRAFLDAPMSVMPGSRKNAIMDRQEGSTQPAIRYNNR | not soluble |
| MAYRDRGMQKWQGMILSEHTEQLEQAKRKLSWLPQQSEECLVEILSYAVTKQHAITIQRLTEDENGYPLPFVVGRIVGVEDDRIYMRDMAGEITVLTFDDINHISEGTIEKWYR | not soluble |
| FVRMIFSAEKSVWIQTPYLIPDDSMINALLVAVRSGVDVRIMIPCMPDHPFIYRATQYYANYLHKRGIKIYIYDSGFIHAKTMVIDDELAMVGTTNQDIRSYSLNFEVSTFIYNPDIAWMLAQVFEEDIEKSVLLTDEIIKKQGYWLRFKQNFSRLLSPVL | not soluble |
| MGSDKIHHHHHHMTDSPHTIRNPAAPLAERLRPRTLDDVVGQSHLLGPGKPLRLAFESGKPHSMILWGPPGSGKTTLARLMAHAFDAEFIAISAVLSGVKDIREAIERAQITLQRTGRATLLFVDEVHRFNKAQQDAFLPHVEQGLITFIGATTENPSFEVNGALLSRAQVYALKALTDQELHQLFERARSIAMLDLEFENTAIELLIGFADGDARRLLNLLEQVQNAAETEEIIKIDADYLSRVLARNVRRFDKGGDAFYDQISALHKSIRGSSPDAALYWLCRMLDGGADPRYIGRRLVRTATEDIGLADPRALTLALNACEVFERLGSPEGELALAQATLYLACAPKSNAAYVAYKQARAFIKEDISRPVPIHLRNAPTRLMREMGHGAAYRYAHDESESYAAGENYFPDNILAVQFYRPTTHGLEAKIGEKLAYLRSLDEKTGKKRN | not soluble |
| MDYRFGRQYRLLKTDDFSSVFAFRNRRSRDLLQVSRSNGNGLGHPRIGLVVGKKTAKRANERNYMKRVIRDWFRLNKNRLPPQDFVVRVHRKFDRATAKQARAELAQLMFGNPATGCRKQA | not soluble |
| MSLEALGVAVVGFGWMGRVHTQAYARVRHHYPHLALRPELVTVAEEVPGRAEEAAAQFGFASTTRDWREVAADPRVHAVSITAPNFLHREIAVAMAGAGKHIWVEKPVGLSSDDARAVADAVSGAGVQGAVGFNYRNAPAVETARRLIAAGEIGTVTHARLRFFSDYAAHPEGALTWRYERERGGSGVLGDLASHGADLARFLLGDIASLTADTAVFVPERARPASATAGHARATGGEPGPVENEDYVSCLLRFASGARGVLEACRVSVGEQNNYGFEVHGTTGAVFWDFRRMNELRVSRGTEYQDQPVSTVYVGPGDGEFAAFQPGAANAMGYDDLKVVEAHRFLRSIAEGTPYGATLSDAVHSAAVLEAMSRSAERGTWVSPGEGHHHHHH | soluble |
| MKHLIVVPPRMNLYIKKNLAINDIFREFVANEDLWPYSIDESILDLTHTWRLFGKTPRAVAQLIQHTIRHRLGLYTTVGIGDNPLQAKIALDVYAKHDPNLIGQISYLEHHHHHH | not soluble |
| MVVPLKRIDKIRWEIPKFDKRMRVPGRVYADEVLLEKMKNDRTLEQATNVAMLPGIYKYSIVMPDGHQGYGFPIGGVAAFDVKEGVISPGGIGYDINCGVRLIRTNLTEKEVRPRIKQLVDTLFKNVPSGVGSQGRIKLHWTQIDDVLVDGAKWAVDNGYGWERDLERLEEGGRMEGADPEAVSQRAKQRGAPQLGSLGSGNHFLEVQVVDKIFDPEVAKAYGLFEGQVVVMVHTGSRGLGHQVASDYLRIMERAIRKYRIPWPDRELVSVPFQSEEGQRYFSAMKAAANFAWANRQMITHWVRESFQEVFKQDPEGDLGMDIVYDVAHNIGKVEEHEVDGKRVKVIVHRKGATRAFPPGHEAVPRLYRDVGQPVLIPGSMGTASYILAGTEGAMKETFGSTCHGAGRVLSRKAATRQYRGDRIRQELLNRGIYVRAASMRVVAEEAPGAYKNVDNVVKVVSEAGIAKLVARMRPIGVAKG | soluble |
| MSLKAVQQHAFGGPEVLSYEDAPMPVLQAGEVLVQVYAVGVNPPDSYLRDGYQQLPPEWRPEVRFPLILGTDLSGVVVARADDVREVAVGDEVYAMARFPEGAAGGSRAYAEYVSVPVSDLARKPLTLSHQQAAAVPMSLLTAWQFMIDPGHEVANPLQPGPHRPVPLAGKRVLVNGAAGGVGHFAVQLAKWQGAEVIAVAAGCHEAFLRQLGADSVIDYTTTAVEETVRDLDLVIDAPGGPASGRFLRTLRPGGALYPIFPLGFAGAEEARQRGVTVSTTQVRSSGAQLARLADLLDAGVIRVAIDSVFPLAQAQMAHERAAQGHLEGKIVLSVMDSEGHHHHHH | soluble |
| MSELFKKLMDQIEMPLEIKNSSVFSSADIIEVKVHSLSRLWEFHFSFPELLPIEVYRELQTRLVNSFEKADIKATFDIRAETIDFSDDLLQDYYQQAFCEPLCNSASFKSSFSQLKVHYNGSQMIISAPQFVNNNHFRQNHLPRLEQQFSLFGF | not soluble |
